Results from patent US20170342349A1, “STABILIZED ENZYME COMPOSITIONS” (NOVOZYMES A/S, priority 2014, published 2017).
Where a chain is given by its changes, count along the chain named. Numbers in names are those of the source. Where “and” joins values, the source holds several entries; their conditions need not be identical. Equal values may be shown once.

B1: G182A: protease variant of SEQ ID NO 3 (protein, listed as Bacillus sp.)
chain: AVPSTQTPWGIKSIYNDQSITKTTGGSGIKVAVLDTGVYTSHLDLAGSAEQCKDFTQSNPLVDGSCTDRQGHGTHVAGTVLAHGGSNGQGVYGVAPQAKLWAYKVLGDNGSGYSDDIAAAIRHVADEASRTGSKVVINMSLGSSAKDSLIASAVDYAYGKGVLIVAAAGNSGSGSNTIGFPAGLVNAVAVAALENVQQNGTYRVADFSSRGNPATAGDYIIQERDIEVSAPGASVESTWYTGGYNTISGTSMATPHVAGLAAKIWSANTSLSHSQLRTELQNRAKVYDIKGGIGAGTGDDYASGFGYPRVK
B2: L184Y: protease variant of SEQ ID NO 3 (protein, listed as Bacillus sp.)
chain: B1 chain with A182G, L184Y
B3: S114Q + S173P + S175P + F180Y: protease variant of SEQ ID NO 3 (protein, listed as Bacillus sp.)
chain: B1 chain with S114Q, S173P, S175P, F180Y, A182G
B4: K146A + S173P + S175P + F180Y: protease variant of SEQ ID NO 3 (protein, listed as Bacillus sp.)
chain: B1 chain with K146A, S173P, S175P, F180Y, A182G
B5: K146N + S173P + S175P + F180Y: protease variant of SEQ ID NO 3 (protein, listed as Bacillus sp.)
chain: B1 chain with K146N, S173P, S175P, F180Y, A182G
B6: K146W + S173P + S175P + F180Y: protease variant of SEQ ID NO 3 (protein, listed as Bacillus sp.)
chain: B1 chain with K146W, S173P, S175P, F180Y, A182G
B7: K146F + S173P + S175P + F180Y: protease variant of SEQ ID NO 3 (protein, listed as Bacillus sp.)
chain: B1 chain with K146F, S173P, S175P, F180Y, A182G
B8: S173P + S175P + F180Y + L184F: protease variant of SEQ ID NO 3 (protein, listed as Bacillus sp.)
chain: B1 chain with S173P, S175P, F180Y, A182G, L184F
B9: Q70A + S173P + S175P + F180Y: protease variant of SEQ ID NO 3 (protein, listed as Bacillus sp.)
chain: B1 chain with Q70A, S173P, S175P, F180Y, A182G
B10: K146T + S173P + S175P + F180Y: protease variant of SEQ ID NO 3 (protein, listed as Bacillus sp.)
chain: B1 chain with K146T, S173P, S175P, F180Y, A182G
B11: K146S + S173P + S175P + F180Y: protease variant of SEQ ID NO 3 (protein, listed as Bacillus sp.)
chain: B1 chain with K146S, S173P, S175P, F180Y, A182G
B12: S114A + S173P + S175P + F180Y: protease variant of SEQ ID NO 3 (protein, listed as Bacillus sp.)
chain: B1 chain with S114A, S173P, S175P, F180Y, A182G
B13: S114F + S173P + S175P + F180Y: protease variant of SEQ ID NO 3 (protein, listed as Bacillus sp.)
chain: B1 chain with S114F, S173P, S175P, F180Y, A182G

Assay: Inhibitor binding assay of SEQ ID NO 3 variants, Inhibitor 1, in Model B detergent
Type: biochemical
Settings: in Model B relative to SEQ ID NO 3; relative Ki, IF>1.0 = lower Ki
From the text: Where E is the protease, I is the inhibitor and EI is the protease-inhibitor complex. […] The concentration of enzyme-inhibitor in the detergent solution is then given by:
where Etot is the total protease concentration ([Etot]=[E]+[EI]), Itot is the total inhibitor concentration ([Itot]=[I]+[EI]), and Ki is the equilibrium binding constant for the reaction. The measured slopes V are given by:
where V0 is the slope without inhibitor added. To calculate apparent binding constant Ki least square fitting of measured slopes at various inhibitor concentrations to this equation is performed with Ki and V0 as variables.
Purified protease variants are pre-diluted to approximately 0.2 mg/ml in dilution buffer. The experimental conditions are described in Table 5. 40 μl diluted protease is then mixed with 40 μl inhibitor solution Inhibitor 1: (Cbz-Gly-Ala-NHCH(CH2C6H4pOH)C(OH)(SO3Na)—H, wherein Cbz is benzyloxycarbonyl) or 40 μl Inhibitor 2: (4-FPBA) solution in the well of a 96 well microtiter plate (Nunc F 96-MTP). […] After 10 min mixing of protease and inhibitor at room temperature, 30 μl of the mixture is transferred to a microtiter plate (Nunc U96 PP 0.5 ml) with 270 μl Model B detergent (described in Table 1) in the wells resulting in inhibitor 1 concentrations of 0-30 μM and inhibitor 2 concentrations of 0-6000 μM. Protease, inhibitor and detergent is mixed for 1 hour using magnetic bars for 1 hour at room temperature to reach equilibrium. Then 20 μl is transferred to a microtiter plate (Nunc F 96-MTP). 100 μl substrate solution is added and after 5 sec mixing absorbance at 405 nm is measured every 20 sec for 5 min on a SpectraMax Plus reader. Slope from linear regression of initial increase in absorbance at 405 nm is used for calculation of apparent binding constants. Ki values were calculated according to the “Calculation of Ki” method described in “Materials and Methods”
Having the Ki for each variant, it is possible to calculate the effect of a single mutation, if data are available for at least two variants that differ only by that mutation. In this case, the relative Ki for the mutation (Improvement Factor, or IF) is calculated:
A lower Ki is desirable, as a satisfactory inhibition can be obtained at a lower inhibitor concentration, so beneficial mutations have an IF>1.0

Molecule	inhibitor 1 binding constant improvement factors (IF)
B1	1.86
B2	4.47

Same assay, conditions: in Model B relative to SEQ ID NO 3 comprising S173P + S175P + F180Y; relative Ki, IF>1.0 = lower Ki

Molecule	inhibitor 1 binding constant improvement factors (IF)
B3	2.03
B4	3.72
B5	1.36
B6	5.47
B7	5.17
B8	4.28 and 3.02
B9	4.13
B10	15.91
B11	1.13
B12	3.33
B13	1.41
